Source: patent publication US11834499 (University of California, dated 2023)
Numbering of substitutions follows the chain as printed.

B1: HuAb307-1 (antibody, V domains shown)
VH: EVQLLESGGGLVQPGGSLRLSCAASGFTFSSYTMSWVRQAPGKGLEWVATIIIGGSYTYYADSVKGRFTISRDNSKNTLYLQMNSLRAEDTAVYYCTRLVKGNAMDYWGQGTLVTVSS
VL: DIVMTQSPDSLAVSLGERATINCKSSQSLLNSGNQKNYLSWYQQKPGQPPKLLIYWASTRESGVPDRFSGSGSGTDFTLTISSLQAEDVAVYYCQNDYSYPFTFGQGTKLEIK
B2: HuAb307-2 (antibody, V domains shown)
VH: B1 VH
VL: B1 VL with I54F
B3: HuAb376-1 (antibody, V domains shown)
VH: B1 VH with I52S, I53S, G55V, V100T
VL: B1 VL with S40T
B4: HuAb376-2 (antibody, V domains shown)
VH: B1 VH with I52S, I53S, G55V, V100T
VL: B1 VL with A19V, I21M, S40T, L84V
B5: HuAb358-2 (antibody, V domains shown)
VH: EVQLVESGGGLVQPGGSLRLSCAVSGFTFSSFGMHWVRQAPGKGLEWVAYISSGTTNIYYADSVKGRFTVSRDNAKNSLYLQMNSLRAEDTAVYYCVRSGYYGNSLDYWGQGTLVTVSS
VL: B1 VL with A19V, I21M, L30F, K36R, S40T, L84V, D97V, S99I, F102L
B6: HuAb358-1 (antibody, V domains shown)
VH: B5 VH
VL: B1 VL with L30F, K36R, S40T, D97V, S99I, F102L
B7: HuAb432-1 (antibody, V domains shown)
VH: QVQLVQSGAEVKKPGSSVKVSCKASGYTFTSDVISWVRQAPGQGLEWMGESYLRNGNTYYAQKFQGRVTITADKSTSTAYMELSSLRSEDTAVYYCARSYYGNSFAYWGQGTLVTVSS
VL: B1 VL with S26T, S40T, D97A, S99Y
B8: HuAb432-2 (antibody, V domains shown)
VH: B7 VH
VL: B1 VL with A19V, I21M, S26T, S40T, L84V, D97A, S99Y
B9: HuAb432-3 (antibody, V domains shown)
VH: B7 VH with V20L, M48I, V68A, I70L
VL: B1 VL with S26T, S40T, D97A, S99Y
B10: HuAb432-4 (antibody, V domains shown)
VH: B7 VH with V20L, M48I, V68A, I70L
VL: B1 VL with A19V, I21M, S26T, S40T, L84V, D97A, S99Y
B11: Ab 432 (antibody, V domains shown)
VH: QIQLQQSGAELARPRASVKLSCKASGYTFTSDVISWVKQRPGQGLEWIGESYLRNGNTYYNENFKGKATLTADKSSSTAYMELRSLTSEDSAVYFCARSYYGNSFAYWGQGTLVTVSA
VL: DIVMTQSPSSLTVTAREKVTMNCKSTQSLLNSGNQKNYLTWYQQKPGQPPKLLIYWASTRESGVPDRFTGSGSGTDFTLTISSVQAEDLAVYYCQNAYYYPFTFGGGTKLEIK
notes: also called 432-Chim
B12: Zolbetuximab (Benchmark 3) (antibody, V domains shown)
VH: QVQLQQPGAELVRPGASVKLSCKASGYTFTSYWINWVKQRPGQGLEWIGNIYPSDSYTNYNQKFKDKATLTVDKSSSTAYMQLSSPTSEDSAVYYCTRSWRGNSFDYWGQGTTLTVSS
VL: B11 VL with R16G, N22S, T26S, A97D, Y99S, G106S
notes: also called zoletuximab
B13: Ab 307 (antibody, V domains shown)
VH: DVKLVESGGGLVKPGGSLKLSCAASGFTFSSYTMSWVRQTPEKRLEWVATIIIGGSYTYYPDSVKGRFTISRDNAKNTLYLQMSSLKSEDTAMYYCTRLVKGNAMDYWGQGTSVAVSS
VL: DIVMTQSPSSLTVTTGEKVTMSCKSSQSLLNSGNQKNYLSWYQQIPGQPPKLLFYWASTRESGVPDRFTGSGSGTDFTLTISNVQAEDLAVYYCQNDYSYPFTFGAGTKLELR
B14: Ab 358 (antibody, V domains shown)
VH: VVQLVESGGDFVQPGGSRKLSCAVSGFTFSSFGMHWVRQAPEKGLEWVAYISSGTTNIYYADTVKGRFTVSRDNPKNSLFLHMTSLRSEDTAMYYCVRSGYYGNSLDYWGQGTPLTVSS
VL: DIVMTQSPSSLTVTAGEKVTMSCKSSQSLFNSGNQRNYLTWYQQKPGQPPKLLIYWASTRESGVPDRFTGSGSGTGFTLTISSVQAEDLAFYYCQNVYIYPLTFGLGTKLELR
B15: HuAb360-3 (antibody, V domains shown)
VH: QVQLVQSGAEVKKPGASVKMSCKASGYTFTSYLMHWVRQAPGQGLEWIGYINPYNDGTNYAQKFQGRATLTSDTSTSTAYMELSSLRSEDTAVYYCTRGDYWGQGTLVTVSS
VL: B1 VL with S40T, T59I, E61Q, Q95L, S99G, Y100F, F102L
B16: HuAb360-1 (antibody, V domains shown)
VH: B15 VH with M20V, A68V, L70M, A79V
VL: B1 VL with S40T, T59I, E61Q, Q95L, S99G, Y100F, F102L
B17: HuAb360-2 (antibody, V domains shown)
VH: B15 VH with M20V, A68V, L70M, A79V
VL: B1 VL with A19V, I21M, S40T, T59I, E61Q, L84V, Q95L, S99G, Y100F, F102L
B18: HuAb360-4 (antibody, V domains shown)
VH: B15 VH
VL: B1 VL with A19V, I21M, S40T, T59I, E61Q, L84V, Q95L, S99G, Y100F, F102L
B19: HuAb360-5 (antibody, V domains shown)
VH: B15 VH with T74K
VL: B1 VL with S40T, T59I, E61Q, Q95L, S99G, Y100F, F102L
B20: HuAb360-6 (antibody, V domains shown)
VH: B15 VH with T74K
VL: B1 VL with A19V, I21M, S40T, T59I, E61Q, L84V, Q95L, S99G, Y100F, F102L
B21: Ab 360 (antibody, V domains shown)
VH: VVQLQQSGPELVKPGASVKMSCKASGYTFTSYLMHWVRQKPGLGLDWIGYINPYNDGTNYNAKFIDKATLTSDKTSSTAYMELSSLTSEDSAIYYCTRGDYWGQGTSVTVSS
VL: DIVMTQSPSSLAVTAGEQVTMSCKSSQSLLNSGNQKNYLTWYQQKPGQPPKLLIYWASIRQSGVPDRFTGSGSGTDFTLTISSVQAEDLAVYYCLNDYGFPLTFGAGTKLELK
notes: also called 360-Chim

target: T1, human Claudin-18.2 (CLDN18.2) (human); assay: FACS, 1.5 ug antibody, HUPT4 cells (endogenous CLDN18.2)
T1 construct: On cells: fused to GFP in engineered HEK293T cells (clone C12), endogenous in HUPT4 and SNU601 cells; also called human CLDN18.2
Procedure: FACS assays were carried out to determine relative antigen binding strengths of the humanized antibodies (at either 1.5 μg or 0.3 μg) for binding to CLDN18.2 as expressed by the indicated cancer cell lines.

Row | Binder | FACS signal (relative antigen binding strength)
1 | B1 | 30200
2 | B2 | 32500
3 | B3 | 29700
4 | B4 | 28300
5 | B5 | 29800
6 | B6 | 52700
7 | B7 | 30600
8 | B8 | 36100
9 | B9 | 27100
10 | B10 | 23100
11 | B11 | 27900
12 | B12 | 10600
13 | B13 | 34700
14 | B14 | 33300
15 | B15 | 27400
16 | B16 | 26400
17 | B17 | 24900
18 | B18 | 28000
19 | B19 | 28600
20 | B20 | 34600
21 | B21 | 26200

target: T1, human Claudin-18.2 (CLDN18.2); assay: FACS, 1.5 ug antibody, HEK293T-CLDN18.2 C12 clone cells

Row | Binder | FACS signal (relative antigen binding strength)
22 | B1 | 126000
23 | B2 | 133000
24 | B3 | 140000
25 | B4 | 119000
26 | B5 | 122000
27 | B6 | 131000
28 | B7 | 97400
29 | B8 | 128000
30 | B9 | 88800
31 | B10 | 173000
32 | B11 | 161000
33 | B12 | 109000
34 | B13 | 141000
35 | B14 | 139000
36 | B15 | 157000
37 | B16 | 120000
38 | B17 | 138000
39 | B18 | 149000
40 | B19 | 138000
41 | B20 | 159000
42 | B21 | 117000
